Data taken from US10005846.

Assays:
[1] = molecular target: human transglutaminase type 2 (TG2) (human) (UniProt P21980)
[2] = molecular target: cynomolgus monkey TG2 (cynomolgus monkey)
[3] = molecular target: human transglutaminase type 2 (TG2) (human) (UniProt P21980); assay: ELISA on immobilised human TG2; r2 0.9991; EC50 95% confidence range 0.3291 to 0.4396 [panel A]
[4] = molecular target: human transglutaminase type 2 (TG2) (human) (UniProt P21980); assay: ELISA on immobilised human TG2; r2 0.9588; EC50 95% confidence range 0.06801 to 0.2396 [panel A]
[5] = molecular target: cynomolgus monkey TG2 (cynomolgus monkey); assay: ELISA on immobilised cynomolgus monkey TG2; r2 0.9994; EC50 95% confidence range 0.3762 to 0.4603 [panel A]
[6] = molecular target: cynomolgus monkey TG2 (cynomolgus monkey); assay: ELISA on immobilised cynomolgus monkey TG2; r2 0.9586; EC50 95% confidence range 0.09303 to 0.4223 [panel A]

Chain of cynomolgus monkey TG2 (cynomolgus monkey) (chain, as listed by the source): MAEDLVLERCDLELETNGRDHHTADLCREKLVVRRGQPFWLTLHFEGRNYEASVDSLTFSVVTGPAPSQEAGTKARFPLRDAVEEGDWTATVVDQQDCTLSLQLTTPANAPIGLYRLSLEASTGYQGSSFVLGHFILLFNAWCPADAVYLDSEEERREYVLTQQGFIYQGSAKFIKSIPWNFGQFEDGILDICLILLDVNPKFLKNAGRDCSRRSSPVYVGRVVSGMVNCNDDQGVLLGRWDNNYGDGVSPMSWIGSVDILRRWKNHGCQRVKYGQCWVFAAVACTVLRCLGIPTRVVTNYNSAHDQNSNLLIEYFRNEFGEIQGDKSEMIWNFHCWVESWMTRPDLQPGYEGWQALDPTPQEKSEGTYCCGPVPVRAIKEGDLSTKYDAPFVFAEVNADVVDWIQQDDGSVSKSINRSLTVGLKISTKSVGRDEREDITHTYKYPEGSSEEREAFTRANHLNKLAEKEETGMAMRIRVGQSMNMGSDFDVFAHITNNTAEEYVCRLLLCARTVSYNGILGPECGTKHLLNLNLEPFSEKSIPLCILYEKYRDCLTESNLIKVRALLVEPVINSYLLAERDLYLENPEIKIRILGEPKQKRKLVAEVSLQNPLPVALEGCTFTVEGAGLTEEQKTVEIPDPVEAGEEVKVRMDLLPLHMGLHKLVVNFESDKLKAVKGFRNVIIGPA
Chain of human transglutaminase type 2 (TG2) (human) (P21980 whole entry): as the sequence (chain, as listed by the source) above, with D4E, R157Q, S177N, S413H, T421I, H528Y, I542V counted along it

Substance: CUB7402 commercial anti-TG2 antibody
- IC50 of enzymatic inhibition, dansylated lysine incorporation into N,N-dimethylated casein [continued), panel F] [1]: > 100 nM
- IC50 of enzymatic inhibition, dansylated lysine incorporation into N,N-dimethylated casein [panel B] [2]: > 100 nM
- EC50 [3]: 0.38 nM
- EC50 [4]: 0.128 nM
- EC50 [5]: 0.416 nM
- EC50 [6]: 0.198 nM
